Assay results reported in paper PMC9834230, “The HAPSTR2 retrogene buffers stress signaling and resilience in mammals” (Nature Communications, 2023).

Molecular target: the molecule itself
Assay: SEC; analytical; 500 µg protein on Superdex 200 Increase 10/300 GL in PBS with 1 mM DTT, 0.3 mL/minute, 4 °C; stoichiometry estimated against standards

B1: recombinant maltose-binding protein (MBP)-tagged HAPSTR2 (natural protein, human, UniProt A0A7P0TBJ1 1-273, looked up)
chain: MEEQQKEGEAEVAEHWFSKWERQCLAEAEQEEQLPPELQEEAAAELAGLKSEKQKLWHLFQISATAVAQLYKDSGCQQQGLSMWDPFQNAAMAVTSLYKESGDAHQRSFDLGVQVGHQRRIKDVLEWVKKGRSTIRREDLISFLCGKVPPAPPPPRTPRTPPKPPTGVTSQAVATESSSSVDVDLQPFQEAIALHGLSGAMAGISMRSGDSPQDSGVASSGRRKTSFLEDDLNPFDSEELALHLDSGGIRKRTSAQCSDGITDSPIQKRNRMV
notes: HAPSTR2, human; Vector pDest-HisMBP (Addgene 11085); No cleavage of the tags is described; Homo-oligomer by SEC; also called MBP-HAPSTR2; H2; source: E. coli BL21 (DE3), purified (Ni-NTA, dialysis); not shown: MBP, N-terminal, kept
- binding result: binds
